The values that follow come from patent US20210107983A1 (Boehringer Ingelheim, published 2021).

Test [1] addresses T1, Cyno B7H6-His (cynomolgus monkey).
T1 construct: also called CyB7H6; cyB7-H6
T1 chain: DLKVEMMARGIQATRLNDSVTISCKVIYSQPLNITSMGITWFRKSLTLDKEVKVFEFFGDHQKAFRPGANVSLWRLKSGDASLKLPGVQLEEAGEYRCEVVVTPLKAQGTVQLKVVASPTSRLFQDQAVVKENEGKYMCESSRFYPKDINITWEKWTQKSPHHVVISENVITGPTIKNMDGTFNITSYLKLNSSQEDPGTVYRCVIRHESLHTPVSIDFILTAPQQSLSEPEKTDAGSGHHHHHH
Kind of test: ratio of SPR KDs cyno/human. The method, then:
(§1) About 700 RU of the B7H6/CD3 binding protein was captured on flow cell 2 of the Protein A/G surface for 60 s at a flow rate of 10 μL/min. The analytes HuB7H6, CyB7H6 and HuB7H1 were injected across both flow cells over captured B7H6/CD3 binding protein for 300 s at a flow rate of 30 μL/min with a dissociation of 1200 s. The concentrations of HuB7H6 and CyB7H6 were 0 nM, 6.25 nM, 12.5 nM, 25 nM, 50 nM and 100 nM. The concentrations of HuB7H1 were 0 nM and 1 μM. The surface was regenerated by injecting 10 mM glycine-HCl, pH 1.5 for 20 s at a flow rate of 30 μL/min across both flow cells.
(§2) The reference flow cell 1 (interactions with sensor surface) and blank (HBS-EP+ or 0 nM analyte) were subtracted from the raw data.
(§3) The B7H6/CD3 binding protein analyte was injected horizontally over the immobilized surface for 300 s at a flow rate of 30 μL/min with a dissociation of 600 s. The concentrations of the B7H6/CD3 binding protein used were 0 nM, 1.2 nM, 3.7 nM, 11.1 nM, 33.3 nM and 100 nM.

Test [2] has as its target T2, chicken egg white lysozyme (chicken, UniProt P00698 19-147).
T2 construct: unrelated positively charged protein, amine-coupled to the chip; also called Lysozyme (positive)
Kind of test: SPR, 1 µM binder over immobilized lysozyme. On the procedure:
(§4) The experiment was performed on a Biacore® T200 SPR system (GE Healthcare Life Sciences). The dilution, surface preparation, and binding experiments were performed at 25° C. in 1×HBS-EP buffer prepared from 10×HBS-EP. The flow rate for both the immobilization protocol and binding experiment was at 5 μL/min.
(§5) To prepare the surface for the non-specific binding experiment, chicken egg white lysozyme and trypsin inhibitor from Glycine max soybean were coupled manually to a Biacore® series S CM5 sensor chip (GE Healthcare sciences) with the surface density of 3000-5000 RU using the amine coupling kit according to the manufacture instructions. Samples were prepared at 1 μM in 1×HBS-EP buffer. The samples were injected over activated surfaces with a 10 min association and 15 min dissociation. The data was collected using Biacore® T200 Control Software version 2.0.1 and analyzed using Biacore® T200 Evaluation Software version 3.0 (GE Healthcare Life Sciences).
For orientation: Surface plasmon resonance follows binding to a sensor surface in real time, without labels.

Test [3] deals with T3, Human CD3 E+G HuFc-6xHis (human).
T3 construct: also called HuCD3E+G-hFc; huCD3
The test can be described thus: SPR, CD3E+G-hFc immobilized, binder analyte. On the procedure: To determine the affinity of the B7H6/CD3 binding protein to human and cyno CD3E+G-hFc, the experiment was performed on a Bio-Rad ProteOn™ XPR36 instrument. Briefly, HuCD3E+G-hFc and CyCD3E+G were amine-coupled on a ProteOn™ GLM sensor chip (Bio-Rad) and the B7H6/CD3 binding protein was flowed over the immobilized surface. The running buffer for this experiment and all serial dilutions were prepared in HBS-EP+. The GLM sensor chip was normalized according to Bio-Rad's recommendations. The sensor chip was activated with an equal mixture of EDC/s-NHS in the horizontal direction for 300 s at a flow rate of 30 μL/min HuCD3E+G-hFc was immobilized in the vertical direction at 0.4 μg/mL, 0.2 μg/mL and 0.1 μg/mL in 10 mM acetate pH 4.5 to L1, L2 and L3, respectively, for 300 s at a flow rate of 30 μL/min resulting in about 100 RU of HuCD3E+G-hFc on L1, 40 RU of HuCD3E+G-hFc on L2 and 0 RU of HuCD3E+G-hFc on L3. CyCD3E+G-hFc was immobilized in the vertical direction at 0.4 μg/mL, 0.2 μg/mL and 0.1 μg/mL in 10 mM acetate pH 4.5 to L4, L5 and L6, respectively, for 300 s at a flow rate of 30 μL/min resulting in about 385 RU of […], 170 RU of CyCD3E+G-hFc on L5 and 50 RU of CyCD3E+G-hFc on L6. The sensor chip was deactivated with 1M ethanolamine-HCl in the horizontal direction for 300 s at a flow rate of 30 μL/min.
as §3
The interspot (interactions with sensor surface) and blank (HBS-EP+ or 0 nM analyte) were subtracted from the raw data.

In test [4] the target is T1, Cyno B7H6-His. The test can be described thus: SPR, binder captured on Protein A/G, B7H6 analyte. On the procedure: (§6) To determine the affinity of human and cyno B7H6 and human B7H1 to B7H6/CD3 binding proteins, the experiment was performed on a Biacore™ 8K instrument (GE Healthcare Life Sciences). Briefly, the B7H6/CD3 binding protein was captured via Protein A/G. The running buffer for this experiment and all serial dilutions were prepared in HBS-EP+. The CM5 sensor chip was activated with an equal mixture of EDC/NHS across both flow cells for 420 s at a flow rate of 10 μL/min and immobilized with recombinant Protein A/G (50 μg/ml in 10 mM NaOAc, pH 4.5) across all flow cells for 420 s at a flow rate of 10 μL/min resulting in about 2500 RU of Protein A/G on the surface. The sensor chip was deactivated with 1M ethanolamine-HCl across all flow cells for 420 s at a flow rate of 10 μL/min.
as §1, §2

Test [5] deals with T4, Human B7H1 (human, UniProt Q9NZQ7 20-239).
T4 construct: also called HuB7H1; huB7-H1
Kind of test: SPR, binder captured on Protein A/G, HuB7H1 analyte. On the procedure: as §6, §1, §2

Test [6] has as its target T5, trypsin inhibitor from Glycine max soybean (Glycine max (soybean)).
T5 construct: unrelated negatively charged protein, amine-coupled to the chip
Kind of test: SPR, 1 µM binder over immobilized trypsin inhibitor. On the procedure:
as §4, §5

For orientation: Kd means the concentration at which binding is half-saturated. A low value points to higher affinity.

T3 sequence (chain, as listed by the source limits assumed): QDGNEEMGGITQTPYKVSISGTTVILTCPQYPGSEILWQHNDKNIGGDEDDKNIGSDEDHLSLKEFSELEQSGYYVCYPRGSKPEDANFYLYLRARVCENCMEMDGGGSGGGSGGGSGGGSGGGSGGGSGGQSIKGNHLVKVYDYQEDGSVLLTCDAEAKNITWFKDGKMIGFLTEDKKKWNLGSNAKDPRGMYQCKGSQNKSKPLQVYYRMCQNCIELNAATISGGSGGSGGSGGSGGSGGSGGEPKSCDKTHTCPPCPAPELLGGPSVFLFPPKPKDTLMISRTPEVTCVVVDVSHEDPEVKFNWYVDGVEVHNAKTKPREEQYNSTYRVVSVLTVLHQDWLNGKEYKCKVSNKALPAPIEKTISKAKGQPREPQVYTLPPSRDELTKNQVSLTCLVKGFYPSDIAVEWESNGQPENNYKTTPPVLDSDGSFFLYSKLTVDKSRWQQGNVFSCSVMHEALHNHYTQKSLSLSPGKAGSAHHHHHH
T5 sequence (P01070 25-205): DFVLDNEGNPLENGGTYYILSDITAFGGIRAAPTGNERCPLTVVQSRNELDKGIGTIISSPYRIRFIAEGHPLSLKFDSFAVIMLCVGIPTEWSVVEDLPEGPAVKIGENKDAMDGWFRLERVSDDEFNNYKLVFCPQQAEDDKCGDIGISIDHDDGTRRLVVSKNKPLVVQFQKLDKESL
T4 sequence (Q9NZQ7 other isoform, or with tags, fused parts or gaps limits assumed): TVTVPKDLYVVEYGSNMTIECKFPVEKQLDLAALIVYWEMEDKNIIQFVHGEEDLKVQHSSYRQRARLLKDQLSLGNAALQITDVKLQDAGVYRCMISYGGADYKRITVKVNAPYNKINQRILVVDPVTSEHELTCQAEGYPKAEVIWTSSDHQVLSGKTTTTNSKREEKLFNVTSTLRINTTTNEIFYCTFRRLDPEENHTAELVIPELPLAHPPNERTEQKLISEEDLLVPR
T2 sequence (P00698 19-147): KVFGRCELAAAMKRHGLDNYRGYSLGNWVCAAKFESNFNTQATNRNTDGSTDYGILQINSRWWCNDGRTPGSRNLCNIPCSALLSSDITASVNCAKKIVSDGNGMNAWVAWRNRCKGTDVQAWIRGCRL

B1: B7H6#22/CD3#1 (bispecific antibody, human IgG1, kappa, lambda, L234A L235A)
chain 1: DIQMTQSPSSLSASVGDRVTITCKASQNVGKYVAWYQQKPGKAPKSLIYSASNRYDAVPSRFSGSGSGTDFTLTISSLQPEDFATYFCQQYISYPLTFGAGTKLEIKRTVAAPSVFIFPPSDEQLKSGTASVVCLLNNFYPREAKVQWKVDNALQSGNSQESVTEQDSKDSTYSLSSTLTLSKADYEKHKVYACEVTHQGLSSPVTKSFNRGECGGGGSEGKSSGSGSESKSTEGKSSGSGSESKSTGGGGSQVQLVQSGAEVKKPGASVKVSCKASGYTFTSYWMNWMKQAPGQGLEWIGGIYLSGDSTDYNEKFKGKVTMTVDTSTSTVYMELSSLRSEDTAVYYCTRRGDYFGDFWGQGTLVTVSSASTKGPSVFPLAPSSKSTSGGTAALGCLVKDYFPEPVTVSWNSGALTSGVHTFPAVLQSSGLYSLSSVVTVPSSSLGTQTYICNVNHKPSNTKVDKRVEPKSCDKTHTCPPCPAPEAAGGPSVFLFPPKPKDTLMISRTPEVTCVVVDVSHEDPEVKFNWYVDGVEVHNAKTKPREEQYNSTYRVVSVLTVLHQDWLNGKEYKCKVSNKALPAPIEKTISKAKGQPREPQVYTLPPSREEMTKNQVSLWCLVKGFYPSDIAVEWESNGQPENNYKTTPPVLDSDGSFFLYSKLTVDKSRWQQGNVFSCSVMHEALHNHYTQKSLSLSPG
chain 2: EAVVTQEPSLTVSPGGTVTLTCRSSTGAVTTSNYANWVQEKPGQLPRGLIGGTNKRAPWVPARFSGSLLGGKAALTLSGAQPEDEAEYFCALWYSNLWVFGGGTKLTVLGQPKAAPSVTLFPPSSEELQANKATLVCLISDFYPGAVKVAWKADGSPVNTGVETTTPSKQSNNKYAASSYLSLTPEQWKSHRSYSCQVTHEGSTVEKTVAPAECSGGGGSEGKSSGSGSESKSTEGKSSGSGSESKSTGGGGSEVQLVESGGGLVQPGGSLKLSCAASGFTFNTYAMNWVRQAPGKGLEWVARIRSKYNNYATYYADSVKDRFTISRDDSKNTAYLQMNNLKTEDTAVYYCVRHGNFGNSYVSWFAYWGQGTLVTVSAASTKGPSVFPLAPSSKSTSGGTAALGCLVKDYFPEPVTVSWNSGALTSGVHTFPAVLQSSGLYSLSSVVTVPSSSLGTQTYICNVNHKPSNTKVDKRVEPKSCDKTHTCPPCPAPEAAGGPSVFLFPPKPKDTLMISRTPEVTCVVVDVSHEDPEVKFNWYVDGVEVHNAKTKPREEQYNSTYRVVSVLTVLHQDWLNGKEYKCKVSNKALPAPIEKTISKAKGQPREPQVYTLPPSREEMTKNQVSLSCAVKGFYPSDIAVEWESNGQPENNYKTTPPVLDSDGSFFLVSKLTVDKSRWQQGNVFSCSVMHEALHNRFTQKSLSLSPG
notes: scFab-Fc heterodimer, one B7H6 chain and one CD3 chain
Take B1: the “cy/hu B7-H6” value in test [1] was 1. Besides, the “Non-specific binding (RU)” value in test [2] turned out to be 7.8 RU; in test [6], 39.5 RU. Moreover, the Kd in test [3] turned out to be 5.1 nM; in test [4], 1.4 nM. Further, the binding result in test [5] is reported as “no binding (tested: 1 µM)”.

B2: B7H6#23/CD3#1 (bispecific antibody, human IgG1, kappa, lambda, L234A L235A)
chain 1: DIQMTQSPSSLSASVGDRVTITCKASQNVGKYVAWYQQKPGKAPKSLIYSASNRYDAVPSRFSGSGSGTDFTLTISSLQPEDFATYFCQQYISYPLTFGAGTKLEIKRTVAAPSVFIFPPSDEQLKSGTASVVCLLNNFYPREAKVQWKVDNALQSGNSQESVTEQDSKDSTYSLSSTLTLSKADYEKHKVYACEVTHQGLSSPVTKSFNRGECGGGGSEGKSSGSGSESKSTEGKSSGSGSESKSTGGGGSQVQLVQSGAEVKKPGASVKVSCKASGYTFTSYWMNWMKQAPGQGLEWIGGIYLSGESTDYNEKFKGKVTMTVDTSTSTVYMELSSLRSEDTAVYYCTRRGDYFGDFWGQGTLVTVSSASTKGPSVFPLAPSSKSTSGGTAALGCLVKDYFPEPVTVSWNSGALTSGVHTFPAVLQSSGLYSLSSVVTVPSSSLGTQTYICNVNHKPSNTKVDKRVEPKSCDKTHTCPPCPAPEAAGGPSVFLFPPKPKDTLMISRTPEVTCVVVDVSHEDPEVKFNWYVDGVEVHNAKTKPREEQYNSTYRVVSVLTVLHQDWLNGKEYKCKVSNKALPAPIEKTISKAKGQPREPQVYTLPPSREEMTKNQVSLWCLVKGFYPSDIAVEWESNGQPENNYKTTPPVLDSDGSFFLYSKLTVDKSRWQQGNVFSCSVMHEALHNHYTQKSLSLSPG
chain 2: EAVVTQEPSLTVSPGGTVTLTCRSSTGAVTTSNYANWVQEKPGQLPRGLIGGTNKRAPWVPARFSGSLLGGKAALTLSGAQPEDEAEYFCALWYSNLWVFGGGTKLTVLGQPKAAPSVTLFPPSSEELQANKATLVCLISDFYPGAVKVAWKADGSPVNTGVETTTPSKQSNNKYAASSYLSLTPEQWKSHRSYSCQVTHEGSTVEKTVAPAECSGGGGSEGKSSGSGSESKSTEGKSSGSGSESKSTGGGGSEVQLVESGGGLVQPGGSLKLSCAASGFTFNTYAMNWVRQAPGKGLEWVARIRSKYNNYATYYADSVKDRFTISRDDSKNTAYLQMNNLKTEDTAVYYCVRHGNFGNSYVSWFAYWGQGTLVTVSAASTKGPSVFPLAPSSKSTSGGTAALGCLVKDYFPEPVTVSWNSGALTSGVHTFPAVLQSSGLYSLSSVVTVPSSSLGTQTYICNVNHKPSNTKVDKRVEPKSCDKTHTCPPCPAPEAAGGPSVFLFPPKPKDTLMISRTPEVTCVVVDVSHEDPEVKFNWYVDGVEVHNAKTKPREEQYNSTYRVVSVLTVLHQDWLNGKEYKCKVSNKALPAPIEKTISKAKGQPREPQVYTLPPSREEMTKNQVSLSCAVKGFYPSDIAVEWESNGQPENNYKTTPPVLDSDGSFFLVSKLTVDKSRWQQGNVFSCSVMHEALHNRFTQKSLSLSPG
notes: as for B1
For the molecule B2, in test [1], the “cy/hu B7-H6” value was 0.9. In addition, the “Non-specific binding (RU)” value in test [2] is 8.1 RU; in test [6] it was 45.7 RU. Further, the Kd in test [3] was determined as 5.5 nM; in test [4], 1.2 nM. Also, the binding result in test [5] was “no binding (tested: 1 µM)”.
